According to patent US10426824 (Dana-Farber, dated 2019):

Molecular target: HLA-A3 (human)
Test: competitive MHC binding assay against a reference peptide

B1: E255K-B255-263 mutant BCR-ABL peptide (KVYEGVWKK) (peptide)
peptide: KVYEGVWKK
notes: Synthetic 9-mer; also called E255K-B (MUT) peptide; BCR-ABL peptide harboring the E255K mutation
  IC50: 17 nM
